Reference: US20100209945A1 (KOREA RESEARCH INSTITUTE OF BIOSCIENCE AND BIOTECHNOLOGY, published 2010)

What was measured:
[1] = target: mouse originated antibody MIgG3; experiment: SPR (Biacore 3000), hybrid of 1a on a CM-5 chip, antibody at 100 to 1000 nM, nonlinear regression with BIAevaluation; Kon and Koff printed as NA
Method: (§1) The antibody solutions containing HIgG1, rabbit IgG, MIgG3 antibodies at the concentrations of 100 nM, 250 nM, 500 nM and 1,000 nM were spilled on the chip surface-treated with the hybrid of 1a of Example <3-1> at the speed of 10 μl/minute to induce the binding reaction and the degree of binding was measured by surface plasmon resonance (SPR) using Biacore 3000.
(§2) As a result, SPR sensor gram values represented in dotted line were obtained. The values were analyzed by nonlinear regression using BIAevaluation software equipped in Biacore 3000 to draw a theoretical line graph (FIG. 4a). From the theoretical graph, kinetic coefficients shown in FIG. 4b were obtained and the overlapping of each dotted line on the line indicates the calculation was correct.

rabbit originated IgG [2] = target: T1, rabbit originated IgG; experiment: SPR (Biacore 3000), hybrid of 1a on a CM-5 chip, antibody at 100 to 1000 nM, nonlinear regression with BIAevaluation
T1 construct: also called rabbit IgG; rabbit originated antibodies
Method: as §1, §2

human originated HIgG1 [3] = target: T2, human originated HIgG1; experiment: as above
T2 construct: also called human IgG1 (anti CRP) antibody
Method: as §1, §2

rabbit originated IgG [4] = target: T1, rabbit originated IgG; experiment: SPR (Biacore 3000), hybrid of 1a on CM-5 chip, antibody at 100-1,000 nM, nonlinear regression with BIAevaluation
Method: as §1, §2

human originated HIgG1 [5] = target: T2, human originated HIgG1; experiment: as above
Method: as §1, §2

BSA = target: T3, BSA (UniProt P02769 25-607); experiment: SPR (Biacore 3000), peptide hybrid coupled to a dextran CM-5 Au chip; legend: chip of formula 1, paragraph 80: hybrid of 1a
T3 construct: Control protein; also called BSA (control)
T3 sequence (P02769 25-607 limits assumed): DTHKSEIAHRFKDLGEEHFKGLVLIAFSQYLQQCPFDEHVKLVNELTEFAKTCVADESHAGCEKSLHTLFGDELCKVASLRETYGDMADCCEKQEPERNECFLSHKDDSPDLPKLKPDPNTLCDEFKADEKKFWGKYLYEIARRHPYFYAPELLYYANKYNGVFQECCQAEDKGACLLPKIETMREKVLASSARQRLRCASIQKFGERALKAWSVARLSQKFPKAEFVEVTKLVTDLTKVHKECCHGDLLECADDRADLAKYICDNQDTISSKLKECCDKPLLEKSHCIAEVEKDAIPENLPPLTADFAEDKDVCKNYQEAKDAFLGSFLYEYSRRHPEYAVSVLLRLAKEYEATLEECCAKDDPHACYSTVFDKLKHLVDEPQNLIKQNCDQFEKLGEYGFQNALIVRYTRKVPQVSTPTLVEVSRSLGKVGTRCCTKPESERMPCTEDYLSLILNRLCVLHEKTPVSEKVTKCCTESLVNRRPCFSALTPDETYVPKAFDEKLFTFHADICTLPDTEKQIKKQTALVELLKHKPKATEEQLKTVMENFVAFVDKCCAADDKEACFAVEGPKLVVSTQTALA
Method: Antibody solutions containing different animal originated antibodies of Example 2 or 5 μg/ml of BSA (control) in PBS were spilled on the chip of Example <3-1> at the speed of 10 μl/minute to bind the antibody to the peptide hybrid on the surface of the chip. The binding capacity was measured by surface plasmon resonance (SPR) using Biacore 3000.

B1: peptide hybrid for protein immobilization represented by formula 1a (H2N(CH2CH2O)2CH2CH2CO-EDDC*AWHLGELVWC*T-CONH2) (peptide)
peptide: EDDCAWHLGELVWCT
modifications: N-terminal H2N(CH2CH2O)2CH2CH2CO- (PEG linker); C-terminal amide (CONH2); disulfide bond between the two Cys (C*)
notes: Synthetic peptide-PEG hybrid; In the assays it was coupled through its terminal amine to a CM-5 chip, magnetic micro beads or a glass plate; also called hybrid of 1a; peptide hybrid of 1a
- Kd [1]: > 20000 nM
- koff (rabbit originated IgG [2]): 0.043 s⁻¹
- kon (rabbit originated IgG [2]): 140000 M⁻¹ s⁻¹
- koff (human originated HIgG1 [3]): 0.02 s⁻¹
- kon (human originated HIgG1 [3]): 230000 M⁻¹ s⁻¹
- Kd (rabbit originated IgG [4]): 305 nM
- Kd (human originated HIgG1 [5]): 85 nM
- binding result (BSA): no binding
